Patent US20200405889A1
Where no end group is shown, it is not given here. [ ]: non-standard residue; d: D form. The star is where a group is joined. maleimido‑mono‑amide‑DOTA = O=C(O)CN1CCN(CC(=O)O)CCN(CC(=O)NCCN2C(=O)CC(*)C2=O)CCN(CC(=O)O)CC1

B1: ^64Cu-DOTA-ECL1i (peptide)
peptide: [dL]G[dT][dF][dL][dK][dC](maleimido‑mono‑amide‑DOTA)
modifications: also: DOTA chelates 64Cu
B2: ECL1i peptide d(LGTFLKC) (peptide)
peptide: [dL]G[dT][dF][dL][dK][dC]

Assays:
[1] = target: mouse chemokine (C-C motif) receptor 2 (CCR2) (mouse) (UniProt P51683); experiment: cell-based or functional assay
[2] = target: human CCR2 (hCCR2) (human) (UniProt P41597); experiment: autoradiography of ^64Cu-DOTA-ECL1i on human COPD lung tissue sections, co-incubation with 500-fold non-radioactive ECL1i
human CCR2 (hCCR2) (human), sequence (P41597 whole entry): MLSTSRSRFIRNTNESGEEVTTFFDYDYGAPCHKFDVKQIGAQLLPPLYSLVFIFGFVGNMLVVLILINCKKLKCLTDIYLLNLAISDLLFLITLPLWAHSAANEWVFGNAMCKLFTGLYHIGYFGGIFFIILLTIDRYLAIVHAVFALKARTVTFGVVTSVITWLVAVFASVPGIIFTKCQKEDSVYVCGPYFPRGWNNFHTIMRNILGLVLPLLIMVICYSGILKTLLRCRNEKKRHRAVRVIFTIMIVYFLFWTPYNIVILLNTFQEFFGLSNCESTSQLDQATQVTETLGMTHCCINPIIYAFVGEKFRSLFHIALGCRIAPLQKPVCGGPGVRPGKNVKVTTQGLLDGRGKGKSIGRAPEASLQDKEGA

mouse chemokine (C-C motif) receptor 2 (CCR2) (mouse), sequence (P51683 whole entry): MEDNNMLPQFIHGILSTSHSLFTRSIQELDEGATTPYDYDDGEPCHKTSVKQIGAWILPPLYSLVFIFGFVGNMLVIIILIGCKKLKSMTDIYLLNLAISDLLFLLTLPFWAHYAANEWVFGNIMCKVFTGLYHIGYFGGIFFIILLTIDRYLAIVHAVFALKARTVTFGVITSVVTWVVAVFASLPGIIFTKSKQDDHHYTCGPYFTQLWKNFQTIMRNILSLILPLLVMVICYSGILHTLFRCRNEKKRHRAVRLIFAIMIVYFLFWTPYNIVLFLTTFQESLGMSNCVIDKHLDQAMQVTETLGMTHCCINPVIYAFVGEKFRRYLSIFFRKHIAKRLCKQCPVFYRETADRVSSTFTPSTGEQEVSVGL

Binder	graft/native lung uptake ratio, PET 1 hour after transplantation, wild type B6 lung into wild type B6 recipient [1]	graft/native lung uptake ratio, PET at 1 hour with co-injected non-radiolabeled ECL1i [1]	graft/native lung uptake ratio, PET at 4 hours, wild type into wild type [1]	graft/native lung uptake ratio, PET at 24 hours, wild type into wild type [1]	lung PET uptake 24 h after intratracheal LPS [1]	lung PET uptake 24 h after intratracheal PBS [1]	lung PET uptake 48 h post-LPS [1]	lung PET uptake 144 h post-LPS [1]	lung PET uptake after low dose LPS [1]	lung PET uptake in LPS-treated mice co-injected with excess non-radioactive ECL1i (blocked) [1]	lung PET uptake in naive mice [1]	percent of PET signal in grafts blocked by competitive receptor blocking, wild type recipients [1]	percent of autoradiography signal blocked [2]
B1	3.71	1.17	4.13	3.73	4.43 % ID/g	0.99 % ID/g	1.04 % ID/g	1.29 % ID/g	1.82 % ID/g	0.63 % ID/g	0.39 % ID/g	75%	
B2													54.5%
